We go through 8 molecules from publication PMC5884809, “ETV2-TET1/TET2 Complexes Induce Endothelial Cell-Specific Robo4 Expression via Promoter Demethylation”.

Data set [1] addresses T1, ETV2 (UniProt O00321 1-342).
T1 sequence: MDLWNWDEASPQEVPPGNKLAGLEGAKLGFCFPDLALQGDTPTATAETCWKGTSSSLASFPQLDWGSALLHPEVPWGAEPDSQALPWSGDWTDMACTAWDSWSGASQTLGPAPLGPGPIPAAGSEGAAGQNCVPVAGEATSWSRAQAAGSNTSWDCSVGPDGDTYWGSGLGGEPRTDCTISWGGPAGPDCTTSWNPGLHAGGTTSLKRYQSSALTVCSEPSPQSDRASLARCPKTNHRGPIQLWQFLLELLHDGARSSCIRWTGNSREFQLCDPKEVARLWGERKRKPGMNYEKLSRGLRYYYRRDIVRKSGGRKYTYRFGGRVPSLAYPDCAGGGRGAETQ
As to the kind of experiment: competition; 50-fold excess vs ETS(4) probe, EMSA; EMSA: 3 µl TNT ETV2, 30 min at 4 °C; 4% native polyacrylamide gel, 0.5x TBE, 120 V 2 h; binding buffer, salt and pH not stated. The note with it: protein: ivt; blunt. (In general: A gel shift assay detects complexes by their altered migration in electrophoresis.)

Data set [2] addresses T1, ETV2. As to the kind of experiment: competition; 50-fold excess vs ETS(1) probe, EMSA; EMSA: 3 µl TNT ETV2, 30 min at 4 °C; 4% native polyacrylamide gel, 0.5x TBE, 120 V 2 h; binding buffer, salt and pH not stated. Particulars: protein: ivt; blunt.
The target in data set [3] is T1, ETV2. As to the kind of experiment: EMSA; strongest shift of the four; abolished by 50-fold WT competitor; EMSA: 3 µl TNT ETV2, 30 min at 4 °C; 4% native polyacrylamide gel, 0.5x TBE, 120 V 2 h; binding buffer, salt and pH not stated. The note with it: protein: ivt; label: 32P (probe); blunt.
For data set [4], the target named is T1, ETV2. Kind of data set: EMSA; third strongest shift; abolished by 50-fold WT competitor; EMSA: 3 µl TNT ETV2, 30 min at 4 °C; 4% native polyacrylamide gel, 0.5x TBE, 120 V 2 h; binding buffer, salt and pH not stated. The note with it: protein: ivt; label: 32P (probe); blunt.
Data set [5] addresses T1, ETV2. Kind of data set: competition; 50-fold excess vs ETS(2) probe, EMSA; EMSA: 3 µl TNT ETV2, 30 min at 4 °C; 4% native polyacrylamide gel, 0.5x TBE, 120 V 2 h; binding buffer, salt and pH not stated. The note with it: protein: ivt; blunt ends, 2 internal mismatches as printed.
Data set [6] has as its target T1, ETV2. Kind of data set: competition; 50-fold excess vs ETS(3) probe, EMSA; EMSA: 3 µl TNT ETV2, 30 min at 4 °C; 4% native polyacrylamide gel, 0.5x TBE, 120 V 2 h; binding buffer, salt and pH not stated. Particulars: protein: ivt; blunt.
In data set [7] the target is T1, ETV2. Kind of data set: EMSA; least pronounced shift of the four; abolished by 50-fold WT competitor; EMSA: 3 µl TNT ETV2, 30 min at 4 °C; 4% native polyacrylamide gel, 0.5x TBE, 120 V 2 h; binding buffer, salt and pH not stated. The note with it: protein: ivt; label: 32P (probe); blunt.
In data set [8] the target is T1, ETV2. As to the kind of experiment: EMSA; second strongest shift; abolished by 50-fold WT competitor; EMSA: 3 µl TNT ETV2, 30 min at 4 °C; 4% native polyacrylamide gel, 0.5x TBE, 120 V 2 h; binding buffer, salt and pH not stated. Particulars: protein: ivt; label: 32P (probe); blunt.

B1: ETS(4)mut (dsDNA)
DNA 1: CCCCTCCTAGGCTCTTCACTG
DNA 2: CAGTGAAGAGCCTAGGAGGGG
On to B1, for which the binding result in data set [1] is on record as “no binding”.

B2: ETS(1)mut (dsDNA)
DNA 1: GGGCCAGGCACCTAGCATCGG
DNA 2: CCGATGCTAGGTGCCTGGCCC
In the case of B2, the binding result in data set [2] was “no binding”.

B3: ETS(1) (dsDNA)
DNA 1: GGGCCAGGCAGGAAGCATCGG
DNA 2: CCGATGCTTCCTGCCTGGCCC
For the molecule B3, the binding result in data set [3] is given as “binds”.

B4: ETS(3) (dsDNA)
DNA 1: CAAAGCCGCTTCCCTCCTGGG
DNA 2: CCCAGGAGGGAAGCGGCTTTG
Turning to B4, in data set [4], the binding result is given as “binds”.

B5: ETS(2)mut (dsDNA)
DNA 1: CATCGGTTAGGTTCAAGCCGC
DNA 2: GCGGCTTTGACCTAACCGATG
For B5, in data set [5], the binding result is reported as “no binding”.

B6: ETS(3)mut (dsDNA)
DNA 1: CAAAGCCGCTAGGCTCCTGGG
DNA 2: CCCAGGAGCCTAGCGGCTTTG
Turning to B6, the binding result in data set [6] is “no binding”.

B7: ETS(4) (dsDNA)
DNA 1: CCCCTCCTTCCCTCTTCACTG
DNA 2: CAGTGAAGAGGGAAGGAGGGG
Take B7: the binding result in data set [7] is “binds”.

B8: ETS(2) (dsDNA)
DNA 1: CATCGGTTTCCTCAAAGCCGC
DNA 2: GCGGCTTTGAGGAAACCGATG
Regarding B8, the binding result in data set [8] is listed as “binds”.
